Experimental data as given in patent US20260355338 (published 2026).

T1: human EpCAM-mFc (human)
T1 chain: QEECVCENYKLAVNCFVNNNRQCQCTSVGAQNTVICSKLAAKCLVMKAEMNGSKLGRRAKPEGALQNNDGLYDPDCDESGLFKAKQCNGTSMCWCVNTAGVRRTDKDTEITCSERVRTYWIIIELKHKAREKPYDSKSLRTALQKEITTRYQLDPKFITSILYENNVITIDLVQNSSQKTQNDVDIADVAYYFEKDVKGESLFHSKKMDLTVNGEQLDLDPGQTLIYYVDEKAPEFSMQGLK


Biological target: T1, human EpCAM-mFc
Experiment: ELISA

Row | Kd [nM] | Binder
1 | 389 | EP101-3014 (1565-Y) (antibody) chain 1: QVQLVQSGAEVKKPGASVKVSCKASGYTFTNYYIHWVRQAPGQRLEYIGWIYPGNVYIQYNEKFKGRATLTADKSASTAYMELSSLRSEDTAVYYCARDGYWFAYWGQGTLVTVSS chain 2: QGQSGQGSWCHSATDTILPCSNGGGSSGGAVGLLAPPGGLSGRSDNIGGSDIVLTQTPLSLSVTPGQPASISCRSSRSLLHSDGFTYLYWFLQKPGQSPQLLIYQTSNLASGVPDRFSSSGSGTDFTLKISRVEAEDVGVYYCAQNLELPNTFGQGTKLEIK
2 | 8.6 | EP05-3014 (1565-Y) (antibody) chain 1: QVQLVQSGAEVKKPGASVKVSCKASGYTFTNYYIHWVRQAPGQRLEYIGWIYPGNVYIQYNEKFKGRATLTADKSASTAYMELSSLRSEDTAVYYCARDGYWFAYWGQGTLVTVSS chain 2: QGQSGQGWWPPCQGGAWCEQRIGGGSSGGAVGLLAPPGGLSGRSDNIGGSDIVLTQTPLSLSVTPGQPASISCRSSRSLLHSDGFTYLYWFLQKPGQSPQLLIYQTSNLASGVPDRFSSSGSGTDFTLKISRVEAEDVGVYYCAQNLELPNTFGQGTKLEIK
3 | 64.4 | EP03-3014 (1565-Y) (antibody) chain 1: QVQLVQSGAEVKKPGASVKVSCKASGYTFTNYYIHWVRQAPGQRLEYIGWIYPGNVYIQYNEKFKGRATLTADKSASTAYMELSSLRSEDTAVYYCARDGYWFAYWGQGTLVTVSS chain 2: QGQSGQGHYCHSRTDTITHCNAGGGSSGGAVGLLAPPGGLSGRSDNIGGSDIVLTQTPLSLSVTPGQPASISCRSSRSLLHSDGFTYLYWFLQKPGQSPQLLIYQTSNLASGVPDRFSSSGSGTDFTLKISRVEAEDVGVYYCAQNLELPNTFGQGTKLEIK
4 | 44 | EP107-2-3014 (1361-H) (antibody) chain 1: QVQLVQSGAEVKKPGASVKVSCKASGYTFTNYHIHWVRQAPGQRLEYIGWIYPGNVYIQYNEKFKGRATLTADKSASTAYMELSSLRSEDTAVYYCARDGPWFAYWGQGTLVTVSS chain 2: QGQSGQGSHPCSYMHPYCFYNSGGGSSGGAVGLLAPPGGLSGRSDNIGGSDIVLTQTPLSLSVTPGQPASISCRSSRSLLHSDGFTYLYWFLQKPGQSPQLLIYQTSNLASGVPDRFSSSGSGTDFTLKISRVEAEDVGVYYCAQNLELPNTFGQGTKLEIK
5 | 0.66 | EP01-3014 (1565-Y) (antibody) chain 1: QVQLVQSGAEVKKPGASVKVSCKASGYTFTNYYIHWVRQAPGQRLEYIGWIYPGNVYIQYNEKFKGRATLTADKSASTAYMELSSLRSEDTAVYYCARDGYWFAYWGQGTLVTVSS chain 2: QGQSGQGPLMTCSDYYTCKNNLGGGSSGGAVGLLAPPGGLSGRSDNIGGSDIVLTQTPLSLSVTPGQPASISCRSSRSLLHSDGFTYLYWFLQKPGQSPQLLIYQTSNLASGVPDRFSSSGSGTDFTLKISRVEAEDVGVYYCAQNLELPNTFGQGTKLEIK
6 | 336 | EP110-3014 (1361-H) (antibody) chain 1: QVQLVQSGAEVKKPGASVKVSCKASGYTFTNYHIHWVRQAPGQRLEYIGWIYPGNVYIQYNEKFKGRATLTADKSASTAYMELSSLRSEDTAVYYCARDGPWFAYWGQGTLVTVSS chain 2: QGQSGQGPRPHCAILRQCLAATGGGSSGGAVGLLAPPGGLSGRSDNIGGSDIVLTQTPLSLSVTPGQPASISCRSSRSLLHSDGFTYLYWFLQKPGQSPQLLIYQTSNLASGVPDRFSSSGSGTDFTLKISRVEAEDVGVYYCAQNLELPNTFGQGTKLEIK
7 | 0.44 | EP02-3014 (1361-H) (antibody) chain 1: QVQLVQSGAEVKKPGASVKVSCKASGYTFTNYHIHWVRQAPGQRLEYIGWIYPGNVYIQYNEKFKGRATLTADKSASTAYMELSSLRSEDTAVYYCARDGPWFAYWGQGTLVTVSS chain 2: QGQSGQGLSCTHSRYDMHCPHMGGGSSGGAVGLLAPPGGLSGRSDNIGGSDIVLTQTPLSLSVTPGQPASISCRSSRSLLHSDGFTYLYWFLQKPGQSPQLLIYQTSNLASGVPDRFSSSGSGTDFTLKISRVEAEDVGVYYCAQNLELPNTFGQGTKLEIK
8 | 44 | EP107-3-3014 (1361-H) (antibody) chain 1: QVQLVQSGAEVKKPGASVKVSCKASGYTFTNYHIHWVRQAPGQRLEYIGWIYPGNVYIQYNEKFKGRATLTADKSASTAYMELSSLRSEDTAVYYCARDGPWFAYWGQGTLVTVSS chain 2: QGQSGQGSLPCSYMHPYCFYNSGGGSSGGAVGLLAPPGGLSGRSDNIGGSDIVLTQTPLSLSVTPGQPASISCRSSRSLLHSDGFTYLYWFLQKPGQSPQLLIYQTSNLASGVPDRFSSSGSGTDFTLKISRVEAEDVGVYYCAQNLELPNTFGQGTKLEIK
9 | 26.9 | EP04-3014 (1565-Y) (antibody) chain 1: QVQLVQSGAEVKKPGASVKVSCKASGYTFTNYYIHWVRQAPGQRLEYIGWIYPGNVYIQYNEKFKGRATLTADKSASTAYMELSSLRSEDTAVYYCARDGYWFAYWGQGTLVTVSS chain 2: QGQSGQGWCPRLFDRPSMGCPTGGGSSGGAVGLLAPPGGLSGRSDNIGGSDIVLTQTPLSLSVTPGQPASISCRSSRSLLHSDGFTYLYWFLQKPGQSPQLLIYQTSNLASGVPDRFSSSGSGTDFTLKISRVEAEDVGVYYCAQNLELPNTFGQGTKLEIK
10 | 4 | EP03-3014 (1361-H) (antibody) chain 1: QVQLVQSGAEVKKPGASVKVSCKASGYTFTNYHIHWVRQAPGQRLEYIGWIYPGNVYIQYNEKFKGRATLTADKSASTAYMELSSLRSEDTAVYYCARDGPWFAYWGQGTLVTVSS chain 2: QGQSGQGHYCHSRTDTITHCNAGGGSSGGAVGLLAPPGGLSGRSDNIGGSDIVLTQTPLSLSVTPGQPASISCRSSRSLLHSDGFTYLYWFLQKPGQSPQLLIYQTSNLASGVPDRFSSSGSGTDFTLKISRVEAEDVGVYYCAQNLELPNTFGQGTKLEIK
11 | 30.5 | EP11-3014 (1361-H) (antibody) chain 1: QVQLVQSGAEVKKPGASVKVSCKASGYTFTNYHIHWVRQAPGQRLEYIGWIYPGNVYIQYNEKFKGRATLTADKSASTAYMELSSLRSEDTAVYYCARDGPWFAYWGQGTLVTVSS chain 2: QGQSGQGFICPTLYDRPHCMHTGGGSSGGAVGLLAPPGGLSGRSDNIGGSDIVLTQTPLSLSVTPGQPASISCRSSRSLLHSDGFTYLYWFLQKPGQSPQLLIYQTSNLASGVPDRFSSSGSGTDFTLKISRVEAEDVGVYYCAQNLELPNTFGQGTKLEIK
12 | 38 | EP11-3014 (1565-Y) (antibody) chain 1: QVQLVQSGAEVKKPGASVKVSCKASGYTFTNYYIHWVRQAPGQRLEYIGWIYPGNVYIQYNEKFKGRATLTADKSASTAYMELSSLRSEDTAVYYCARDGYWFAYWGQGTLVTVSS chain 2: QGQSGQGFICPTLYDRPHCMHTGGGSSGGAVGLLAPPGGLSGRSDNIGGSDIVLTQTPLSLSVTPGQPASISCRSSRSLLHSDGFTYLYWFLQKPGQSPQLLIYQTSNLASGVPDRFSSSGSGTDFTLKISRVEAEDVGVYYCAQNLELPNTFGQGTKLEIK
13 | 31 | EP107-1-3014 (1361-H) (antibody) chain 1: QVQLVQSGAEVKKPGASVKVSCKASGYTFTNYHIHWVRQAPGQRLEYIGWIYPGNVYIQYNEKFKGRATLTADKSASTAYMELSSLRSEDTAVYYCARDGPWFAYWGQGTLVTVSS chain 2: QGQSGQGSRPCSYMHPYCFYNSGGGSSGGAVGLLAPPGGLSGRSDNIGGSDIVLTQTPLSLSVTPGQPASISCRSSRSLLHSDGFTYLYWFLQKPGQSPQLLIYQTSNLASGVPDRFSSSGSGTDFTLKISRVEAEDVGVYYCAQNLELPNTFGQGTKLEIK
14 | 126 | EP104-3014 (1565-Y) (antibody) chain 1: QVQLVQSGAEVKKPGASVKVSCKASGYTFTNYYIHWVRQAPGQRLEYIGWIYPGNVYIQYNEKFKGRATLTADKSASTAYMELSSLRSEDTAVYYCARDGYWFAYWGQGTLVTVSS chain 2: QGQSGQGTTRCEHYWFTCPLSPGGGSSGGAVGLLAPPGGLSGRSDNIGGSDIVLTQTPLSLSVTPGQPASISCRSSRSLLHSDGFTYLYWFLQKPGQSPQLLIYQTSNLASGVPDRFSSSGSGTDFTLKISRVEAEDVGVYYCAQNLELPNTFGQGTKLEIK
15 | 512 | EP109-3014 (1361-H) (antibody) chain 1: QVQLVQSGAEVKKPGASVKVSCKASGYTFTNYHIHWVRQAPGQRLEYIGWIYPGNVYIQYNEKFKGRATLTADKSASTAYMELSSLRSEDTAVYYCARDGPWFAYWGQGTLVTVSS chain 2: QGQSGQGPNTCMSERRICSLTYGGGSSGGAVGLLAPPGGLSGRSDNIGGSDIVLTQTPLSLSVTPGQPASISCRSSRSLLHSDGFTYLYWFLQKPGQSPQLLIYQTSNLASGVPDRFSSSGSGTDFTLKISRVEAEDVGVYYCAQNLELPNTFGQGTKLEIK
16 | 348 | EP106-3014 (1361-H) (antibody) chain 1: QVQLVQSGAEVKKPGASVKVSCKASGYTFTNYHIHWVRQAPGQRLEYIGWIYPGNVYIQYNEKFKGRATLTADKSASTAYMELSSLRSEDTAVYYCARDGPWFAYWGQGTLVTVSS chain 2: QGQSGQGFCSGYSPSVLPSCLMGGGSSGGAVGLLAPPGGLSGRSDNIGGSDIVLTQTPLSLSVTPGQPASISCRSSRSLLHSDGFTYLYWFLQKPGQSPQLLIYQTSNLASGVPDRFSSSGSGTDFTLKISRVEAEDVGVYYCAQNLELPNTFGQGTKLEIK
17 | 72.5 | EP102-3014 (1565-Y) (antibody) chain 1: QVQLVQSGAEVKKPGASVKVSCKASGYTFTNYYIHWVRQAPGQRLEYIGWIYPGNVYIQYNEKFKGRATLTADKSASTAYMELSSLRSEDTAVYYCARDGYWFAYWGQGTLVTVSS chain 2: QGQSGQGSPACSDRYYQTCVLNGGGSSGGAVGLLAPPGGLSGRSDNIGGSDIVLTQTPLSLSVTPGQPASISCRSSRSLLHSDGFTYLYWFLQKPGQSPQLLIYQTSNLASGVPDRFSSSGSGTDFTLKISRVEAEDVGVYYCAQNLELPNTFGQGTKLEIK
18 | 0.46 | EP05-3014 (1361-H) (antibody) chain 1: QVQLVQSGAEVKKPGASVKVSCKASGYTFTNYHIHWVRQAPGQRLEYIGWIYPGNVYIQYNEKFKGRATLTADKSASTAYMELSSLRSEDTAVYYCARDGPWFAYWGQGTLVTVSS chain 2: QGQSGQGWWPPCQGGAWCEQRIGGGSSGGAVGLLAPPGGLSGRSDNIGGSDIVLTQTPLSLSVTPGQPASISCRSSRSLLHSDGFTYLYWFLQKPGQSPQLLIYQTSNLASGVPDRFSSSGSGTDFTLKISRVEAEDVGVYYCAQNLELPNTFGQGTKLEIK
